The supplement of paper PMC10126150
± gives the standard deviation of the averaged measurements.

These sequences were tested on ATP (assay: switch fluorescence ratio, 500 uM ATP over buffer (Cy3 cluster intensity, sum of 5 cycles each) (fold (ratio)); higher = stronger signal-on switching upon ATP binding; sequences stand for … in TCGTCGGCAGCGTCAGATGTGTATAAGAGACAGTTTTTTTTTTTTTTTTTTTTTTTTT…TC). Settings: aptamer strand: ATP DNA aptamer (quencher-CACCTGGGGGAGTATTGCGGAGGAAGG + anchor), 100 nM annealed; ATP concentration: 500 uM.
How it was run: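 Exposure to 500 uM ATP lasted 15 min at 22 °C before imaging, and a selection-buffer image was taken beforehand, for Cy3-labelled switching-strand clusters on a modified Illumina MiSeq flow-cell annealed to 100 nM quencher-labelled ATP aptamer. Five buffer/ATP cycles were run with NaOH stripping and re-annealing between them. The fluorescence ratio per cluster is summed target-cycle over summed buffer-cycle Cy3 intensity, averaged per switch-domain sequence. Clusters outside 100-1000 RFU were excluded.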

In order of falling switch fluorescence ratio:
1. AATGGGGAAT  1.25 ± 0.4
2. AATGCGGGGT  1.13 ± 0.16
3. AATGACGGTA  1.0565 ± 0.00075
4. AATTACGTAA  1.06 ± 0.012
5. AATTACGTTT  1.06 ± 0.062
6. AATTTACACT  1.06 ± 0.014
7. AATTCAACAC  1.05 ± 0.038
8. AATGCCTTTT  1.04 ± 0.037
9. AATGCGTGGC  1.0436 ± 0.00057
10. AATTAAGAGA  1.04 ± 0.017
11. AATTAGCAAG  1.04 ± 0.018
12. AATGCAGGTA  1.03 ± 0.027
13. AATGGAATTT  1.03 ± 0.066
14. AATGGAGGGT  1.03 ± 0.055
15. AATTTGACAT  1.03 ± 0.02
16. AATGCGTATG  1.02 ± 0.036
17. AATGGATATG  1.02 ± 0.058
18. AATGGCGCGA  1.02 ± 0.054
19. AATGGGGTAT  1.02 ± 0.018
20. AATGGGTTCA  1.021 ± 0.0062
21. AATGGTGATT  1.02 ± 0.046
22. AATTACTTTT  1.02 ± 0.02
23. AATTCCGATA  1.02 ± 0.026
24. AATTCGGGCG  1.02 ± 0.071
25. AATTCGTCGG  1.02 ± 0.045
26. AATTGAGGGC  1.02 ± 0.035
27. AATGAGATCG  1.01 ± 0.016
28. AATGAGTGGA  1.008 ± 0.0063
29. AATGGCACAG  1.01 ± 0.015
30. AATGGGTAC  1.015 ± 0.0059
31. AATGTCAGCT  1.01 ± 0.021
32. AATGTGTGAA  1.01 ± 0.017
33. AATGTTGTCC  1.007 ± 0.0094
34. AATTAGTCTA  1.01 ± 0.03
35. AATTGGCGTA  1.01 ± 0.034
36. AATTGTTGGG  1.01 ± 0.041
37. AATTTAGGAG  1.01 ± 0.051
38. AATGACGTGT  1 ± 0.052
39. AATGCCTCAG  1 ± 0.024
40. AATGGCCAAG  1 ± 0.0056
41. AATGGGTACT  1 ± 0.015
42. AATGGTAGGG  1 ± 0.03
43. AATGTCATTT  1 ± 0.018
44. AATTATTTTG  1 ± 0.045
45. AATTTCACTT  1.003 ± 0.0047
46. AATTTGATGT  1.005 ± 0.0056
47. AATGAGGGAA  0.9986 ± 0.0011
48. AATTGTTATG  0.999 ± 0.039
49. AATTTCGGGG  0.999 ± 0.017
50. AATTTGCGTT  0.999 ± 0.013
51. AATGAGTTTT  0.998 ± 0.027
52. AATGGGGGTA  0.998 ± 0.034
53. AATTGGGGGG  0.998 ± 0.04
54. AATTAAGGGG  0.997 ± 0.029
55. AATTAATCCA  0.997 ± 0.017
56. AATTATTGCA  0.997 ± 0.043
57. AATGGTGCCT  0.996 ± 0.07
58. AATTATTGTT  0.996 ± 0.017
59. AATTGCATAA  0.996 ± 0.04
60. AATGGTAATT  0.995 ± 0.039
61. AATTCTATAG  0.995 ± 0.033
62. AATTTGATGG  0.995 ± 0.013
63. AATGTTAAGT  0.994 ± 0.022
64. AATGTTATCT  0.994 ± 0.057
65. AATGTCATCA  0.993 ± 0.013
66. AATTAACGCG  0.993 ± 0.023
67. AATTTAGGTT  0.993 ± 0.03
68. AATGGTCAT  0.991 ± 0.071
69. AATGTCAATG  0.991 ± 0.021
70. AATGGCATTT  0.989 ± 0.025
71. AATTAAAAGT  0.989 ± 0.017
72. AATGACAGGG  0.988 ± 0.02
73. AATGTGGACG  0.988 ± 0.04
74. AATTAAGGGT  0.9881 ± 0.0058
75. AATTATTTTT  0.9867 ± 0.0061
76. AATTAAAGTT  0.98603 ± 0.00086
77. AATGGTTTGG  0.985 ± 0.013
78. AATTGGTGTT  0.985 ± 0.025
79. AATGTGCTGT  0.983 ± 0.058
80. AATTGATCGT  0.982 ± 0.024
81. AATTTGCGGC  0.982 ± 0.029
82. AATTAGGGGG  0.981 ± 0.064
83. AATTTGGAAG  0.981 ± 0.027
84. AATTCATAGT  0.978 ± 0.018
85. AATTCGGCTT  0.978 ± 0.0088
86. AATTGCTTGT  0.978 ± 0.02
87. AATTTAGTTT  0.978 ± 0.026
88. AATTGTAGGC  0.976 ± 0.036
89. AATGGAGGGA  0.974 ± 0.011
90. AATGGGTTGA  0.9743 ± 0.0053
91. AATTAGCTGT  0.9743 ± 0.0085
92. AATGCATCTG  0.973 ± 0.013
93. AATGTTTGTT  0.971 ± 0.015
94. AATTTAAGAA  0.971 ± 0.013
95. AATGCTGTGT  0.97 ± 0.021
96. AATTAAGTGT  0.969 ± 0.021
97. AATGTGCGGG  0.963 ± 0.042
98. AATTTCGGAT  0.9595 ± 0.0035
99. AATGCTAATA  0.952 ± 0.011
100. AATTGCCTGT  0.933 ± 0.071
